For orientation: IC50 means the midpoint of a concentration-inhibition curve. High values mean a need for much substance, low ones inhibition by little substance.

This assay has as its target rat MHC class II molecules on Lewis rat splenic adherent cells (antigen presenting cells) (rat). Description: competition with 10 µM biotin-labeled MBP (87-99) for binding to OX-6/OX-17 positive rat splenic adherent cells, flow cytometry. For orientation: Flow cytometry measures light scatter and fluorescence of single cells or particles in a stream.

The substance “MBP (87-99) peptide analogue with alanine at position 91 (91K>A)” registered an IC50 of 21 µM.
